This is an account of results in US20170174769A1 (Regeneron, published 2017).

Assay [1] concerns the target T1, recombinant cynomolgus monkey FGF21 with an N-terminal hexahistidine tag (cynomolgus monkey).
T1 construct: also called His6-MfFGF21; mfFGF21
T1 chain: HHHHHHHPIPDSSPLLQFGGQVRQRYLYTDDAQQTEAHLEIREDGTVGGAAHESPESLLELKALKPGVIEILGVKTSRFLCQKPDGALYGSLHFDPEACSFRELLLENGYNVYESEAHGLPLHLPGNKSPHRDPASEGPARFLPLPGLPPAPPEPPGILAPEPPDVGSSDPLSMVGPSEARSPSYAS
Description: SPR Biacore 4000, mAb captured, 25 C. How it is done:
(§1) Antibodies were captured on a goat anti-mouse IgG polyclonal antibody (GE Healthcare, BR-1008-38) surface created through direct amine coupling of the anti-IgG antibodies to a Biacore CM5 sensor chip. Kinetic experiments were carried out using HBS-EP (10 mM HEPES, 150mM NaCl, 3 mM EDTA, 0.05% Surfactant P20, pH 7.4) as both the running buffer and the sample buffer. […] Antibody-antigen association was monitored for 180 seconds while dissociation in buffer was monitored for 300 seconds. Kinetic association (kₐ) and dissociation (kd) rate constants were determined by processing and fitting the data using Scrubber software version 2.0c. Binding dissociation equilibrium constants (KD) and dissociative half-lives (t_{1/2}) were calculated from the kinetic rate constants as: KD =kd/kₐ and t112 =In(2)/kd.
A general note: In SPR one partner is held on a chip, and binding of the other changes the refractive index at the surface.

For assay [2], the target named is T2, recombinant human FGF21 expressed with an N-terminal hexahistidine tag (human, UniProt Q9NSA1 29-209).
T2 construct: also called His6-hFGF21; 6His-hFGF21
T2 sequence: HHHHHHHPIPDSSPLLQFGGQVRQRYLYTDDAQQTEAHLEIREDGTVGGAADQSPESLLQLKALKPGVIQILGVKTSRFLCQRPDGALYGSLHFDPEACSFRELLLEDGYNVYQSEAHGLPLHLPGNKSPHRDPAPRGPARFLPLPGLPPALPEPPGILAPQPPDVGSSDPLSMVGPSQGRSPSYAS
The experiment in a line: SPR Biacore 4000, mAb captured, 25 C. How it is done:
as §1

Assay [3] deals with T2, recombinant human FGF21 expressed with …. Description: cell-based or functional assay.
The target of assay [4] is T1, recombinant cynomolgus monkey FGF21 …. The experiment in a line: SPR Biacore 4000, mAb captured, 37 C. How it is done: as §1
In assay [5] the target is T2, recombinant human FGF21 expressed with …. The experiment in a line: SPR Biacore 4000, mAb captured, 37 C. The procedure:
as §1

Assay [6] has as its target T3, biotinylated human FGF21 expressed with a N-terminal hexahistidine tag (human, UniProt Q9NSA1 29-209, biotinylated (site not stated)).
T3 construct: also called biotin-6His-hFGF21; biotin 6His-hFGF21
T3 sequence: T2 sequence
The experiment in a line: competition ELISA: mAb blocks 300 pM biotin-6His-hFGF21 binding to coated hKLB-10his. The procedure:
The ability of anti-FGF21 antibodies to block human FGF21 binding to a cognate binding partner human klotho beta was evaluated with an ELISA-based immunoassay. Briefly, human klotho beta (hKLB-10his; R&D systems, #5889-KB-050) was coated at 2μg/mL on a 96-well plate in PBS buffer overnight at 4° C. […] The equilibrated sample solutions were then transferred to hKLB-10his-coated plates. […] Samples were developed with a TMB solution to produce a colorimetric reaction and then neutralized with 1M sulfuric acid before measuring absorbance at 450 nm on a Victor plate reader. Data analysis was performed using a sigmoidal dose-response model within Prism™ software (GraphPad).
The absorbance values of the wells containing the highest concentration for each antibody were used to determine the percent maximum blockade.
A general note: An ELISA detects its analyte on a solid surface through an enzyme-linked reagent.

B1: H2M6499N (antibody, V domains shown)
VH: QVHLVQSGAEVKKPGASVKVSCKASGYSFTDYYVHWVRQAPGQGLEWMGWFNPKSGDTNSVQKFQGRVSMTGDTSITTAYLDLRRLTSDDTAVYYCGRSGYFDFWGQGTLVTVSS
VL: DVVMTQSPLSLSVTLGQPASISCRSSQSLVFSDGNTFLNWFQQRPGQSPRRLIYNLSNRDSGVPDRFSGSGSGTDFTLKISGVEAEDVGVYYCMQGTHWPLTFGGGTKVEIK
notes: human variable domains, mouse IgG2 Fc (H2M prefix); also called H2aM6499N
As for B1, in assay [1], the dissociation constant Kd (in general, the concentration at which binding is half-saturated) stood at 23.2 nM; the dissociation rate constant (koff) (usually the rate constant with which the complex falls apart) amounted to 0.00578 s⁻¹; the kon (in general, the second-order rate constant of association) amounted to 250000 M⁻¹ s⁻¹; the t1/2 came out at 2 min. In assay [2], the Kd came to 19.2 nM, the dissociation rate constant (koff) turned out to be 0.00669 s⁻¹, the on-rate constant (kon) was found to be 349000 M⁻¹ s⁻¹ and the t1/2 stood at 1.7 min. Further, the “IC50, inhibition of 1 nM FGF21 activation of 293/hKLB/FGFR1c/SRE-Luc cells” value in assay [3] was 11 nM. In addition, in assay [4], the Kd is 46.5 nM, the koff was found to be 0.015 s⁻¹, the on-rate constant (kon) came to 323000 M⁻¹ s⁻¹ and the t1/2 is 0.8 min. For the same molecule, in assay [5], the Kd was 41.1 nM, the dissociation rate constant (koff) is 0.0212 s⁻¹, the kon amounted to 516000 M⁻¹ s⁻¹ and the t1/2 amounted to 0.5 min. Moreover, in assay [6], the “% Blocking at 100 nM Antibody Concentration” value (“% Blocking” for short) turned out to be 98% and the IC50 (usually the midpoint of a concentration-inhibition curve) was found to be 0.076 nM.

B2: H2M6504N (antibody, V domains shown)
VH: EVHLVESGGGLVQPGRSLRLSCVASGFTFDDYAMHWVRQVPGKGLEWVSVITWNSGSIGYADSVKGRFTISRDNAKNSLFLQVSSLRAEDTALYYCAKGISPTGTTPDYWGQGTLVTVSS
VL: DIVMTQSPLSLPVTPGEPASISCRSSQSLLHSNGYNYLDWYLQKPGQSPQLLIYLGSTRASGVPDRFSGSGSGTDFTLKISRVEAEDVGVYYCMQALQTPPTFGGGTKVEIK
notes: mouse IgG2 Fc (H2M prefix); also called H2aM6504N
In the case of B2, the Kd worked out at 37.2 nM in assay [1], 2.3 nM in assay [2], 64 nM in assay [4] and 4.4 nM in assay [5]. Also, the koff stood at 0.0237 s⁻¹ in assay [1], 0.00197 s⁻¹ in assay [2], 0.053 s⁻¹ in assay [4] and 0.00549 s⁻¹ in assay [5]. For the same molecule, the on-rate (kon) was 640000 M⁻¹ s⁻¹ in assay [1], 860000 M⁻¹ s⁻¹ in assay [2], 820000 M⁻¹ s⁻¹ in assay [4] and 1.25e+06 M⁻¹ s⁻¹ in assay [5]. Besides, the t1/2 in assay [1] stood at 0.5 min; in assay [2], 5.9 min; in assay [4], 0.2 min; in assay [5], 2.1 min. The “IC50, inhibition of 1 nM FGF21 activation of 293/hKLB/FGFR1c/SRE-Luc cells” value in assay [3] amounted to 1 nM. The “% Blocking” value in assay [6] stood at 64%.

B3: H2M6509N (antibody, V domains shown)
VH: EVQLVESGGGLVKPGGSLRLSCAASGFTFSNAWMSWVRQAPGKGLDWVGRIKNKLDGGTTDYAAPVKGRFTISRDDSKNTLYLQMNSLKTEDTAVYYCTTDHGWNYYYGMDVWGQGTTVTVSS
VL: DIQMTQSPSSLSASVGDRVTITCRASQDISNYLAWFQHKPGKAPKSLIYAASSLQGGVPSKFSGSGSGTDFTLTISSLQPEDFATYYCQQYNTYPPTFGAGTKVEIK
notes: mouse IgG2 Fc (H2M prefix); also called H2aM6509N
As to B3, in assay [1], the Kd worked out at 47.6 nM, the off-rate (koff) came out at 0.00316 s⁻¹, the on-rate (kon) was determined as 66000 M⁻¹ s⁻¹ and the t1/2 turned out to be 3.7 min. In assay [2], the Kd came out at 26.6 nM, the off-rate (koff) stood at 0.00297 s⁻¹, the kon came out at 111000 M⁻¹ s⁻¹ and the t1/2 was 3.9 min. Moreover, the “IC50, inhibition of 1 nM FGF21 activation of 293/hKLB/FGFR1c/SRE-Luc cells” value in assay [3] came out at 9.1 nM. Moreover, in assay [4], the Kd was determined as 109 nM, the dissociation rate constant (koff) was 0.0142 s⁻¹, the kon came out at 130000 M⁻¹ s⁻¹ and the t1/2 was determined as 0.8 min. In assay [5], the equilibrium dissociation constant (Kd) amounted to 58.9 nM, the koff is 0.0139 s⁻¹, the association rate constant (kon) amounted to 236000 M⁻¹ s⁻¹ and the t1/2 was 0.8 min. Further, in assay [6], the “% Blocking” value worked out at 31% and the concentration for half-maximal inhibition (IC50) is greater than 100 nM.
